Article PMC11480844 (2024)

B1: H2-Kb / Ed16-30 (parent complex)
chain 1: GEQVEQRPPHLSVREGDSAVIICTYTDPNSYYFFWYKQEPGAGLQLLMKVFSSTEINEGQGFTVLLNKKDKQLSLNLTAAHPGDSAVYFCAVSEPSSGQKLVFGQGTILKVYL
chain 2: EAAVTQSPRNKVAVTGGKVTLSCNQTNNHNNMYWYRQDTGHGLRLIHYSYGAGSTEKGDIPDGYKASRPSQENFSLILELATPSQTSVYFCAGRDTGQLYFGEGSKLTVL
chain 3: not shown
chain 4: IQKTPQIQVYSRHPPENGKPNILNCYVTQFHPPHIEIQMLKNGKKIPKVEMSDMSFSKDWSFYILAHTEFTPTETDTYACRVKHDSMAEPKTVYWDRDM
chain 5: SIINFEKL
B2: H2-Kb / Ed31 (parent complex)
chain 1: GQQVQQSPASLVLQEGENAELQCNFSTSLNSMQWFYQRPGGSLVSLFYNPSGTKHSGRLTSTTVIKERRSSLHISSSQTTDSGTYLCALEGNYAQGLTFGLGTRVSVFP
chain 2: ETAVFQTPNYHVTQVGNEVSFNCKQTLGHDTMYWYKQDSKKLLKIMFSYNNKQLIVNETVPRRFSPQSSDKAHLNLRIKSVEPEDSAVYLCASRSAGEQYFGPGTRLTVL
chain 3: not shown
chain 4: B1 chain 4
chain 5: SIINFEKL

Variants of: B1
Assay: % of reporter cells activated (NFAT-GFP), raw
Further: test concentration or dose not given here.

Variant | ratio to parent
chain 5 F5T | 1.23
chain 5 L8W | 0.929
chain 5 F5S | 1.19
chain 5 S1I | 0.323
chain 5 K7F | 0.106
chain 5 I3L | 1.03
chain 5 K7M | 0.57
chain 5 F5D | 0.85
chain 5 K7R | 1.17
chain 5 I3E | 0.45
chain 5 N4Y | 0.0322
chain 5 I2F | 1.08
chain 5 F5W | 1.03
chain 5 E6V | 0.0227
chain 5 I2W | 0.866
chain 5 F5A | 1.21
chain 5 L8D | 0.715
chain 5 I2C | 1.12
chain 5 L8E | 0.823
chain 5 K7Q | 0.297
chain 5 K7N | 0.305
chain 5 E6W | 0.422
chain 5 L8V | 1
chain 5 I2R | 0.968

Variants of: B2
Assay: % of reporter cells activated (NFAT-GFP), raw

Variant | ratio to parent
chain 5 F5N | 0.525
chain 5 I2K | 0.818
chain 5 S1T | 0.99
chain 5 I2P | 0.972
chain 5 E6L | 0.0037
chain 5 F5C | 0.68
chain 5 K7H | 0.323
chain 5 N4W | 0.42
chain 5 I2A | 1.18
chain 5 I3Y | 0.0382
chain 5 N4H | 0.0784
chain 5 I3C | 0.555
chain 5 I2L | 1.12
chain 5 K7C | 0.747
chain 5 E6K | 0.777
chain 5 I2Y | 0.658
chain 5 I3F | 0.0484
chain 5 E6I | 0.000832
chain 5 F5E | 0.407
chain 5 E6C | 0.00242
chain 5 L8K | 0.854
chain 5 S1H | 1.04
chain 5 E6Q | 0.111
chain 5 L8D | 0.549
chain 5 I3S | 0.38
chain 5 S1E | 0.561

Variant | ratio to parent
chain 5 I3N | 0.225
chain 5 L8M | 0.945
chain 5 K7G | 0.186
chain 5 N4D | 0.00288
chain 5 K7A | 0.41
chain 5 I2D | 0.962
chain 5 F5S | 0.753
chain 5 I2H | 0.832
chain 5 S1I | 0.676
chain 5 I2G | 1.11
chain 5 S1G | 1.04
chain 5 F5T | 0.956
chain 5 I3K | 0.735
chain 5 L8G | 0.711
chain 5 I2N | 0.832
chain 5 N4Y | 0.242
chain 5 F5P | 0.261
chain 5 S1D | 0.504
chain 5 I2S | 1.12
chain 5 K7Q | 0.146
chain 5 F5K | 0.509
chain 5 N4M | 0.207
chain 5 S1Y | 0.934
chain 5 S1V | 0.551
chain 5 K7I | 0.176
chain 5 E6Y | 0.0864

Variant | ratio to parent
chain 5 S1P | 0.658
chain 5 K7R | 0.698
chain 5 K7V | 0.247
chain 5 K7D | 0.167
chain 5 L8F | 0.891
chain 5 F5Y | 1.11
chain 5 I2M | 1.07
chain 5 S1L | 0.46
chain 5 N4S | 0.00781
chain 5 I3A | 0.523
chain 5 I3E | 0.499
chain 5 E6D | 0.458
chain 5 S1R | 0.532
chain 5 E6T | 0.00208
chain 5 I3T | 0.548
chain 5 I3G | 0.309
chain 5 N4I | 0.484
chain 5 S1C | 0.44
chain 5 L8T | 0.862
chain 5 E6N | 0.0136
chain 5 E6G | 0.435
chain 5 L8I | 0.968
chain 5 I3L | 1.02
chain 5 N4E | 0.0188
chain 5 L8W | 0.766
chain 5 I2F | 0.795

Variant | ratio to parent
chain 5 F5Q | 0.49
chain 5 E6V | 0.00379
chain 5 I2E | 1.11
chain 5 I3M | 0.563
chain 5 K7S | 0.614
chain 5 I3P | 0.894
chain 5 N4C | 0.031
chain 5 S1K | 0.757
chain 5 N4L | 0.198
chain 5 N4Q | 0.583
chain 5 K7P | 0.298
chain 5 E6W | 0.00233
chain 5 L8A | 0.898
chain 5 F5D | 0.536
chain 5 I3H | 0.183
chain 5 N4G | 0.083
chain 5 N4K | 0.0359
chain 5 N4A | 0.0503
chain 5 L8S | 0.762
chain 5 I3Q | 0.272
chain 5 E6F | 0.0115
chain 5 F5R | 0.635
chain 5 K7W | 0.542
chain 5 K7Y | 0.167
chain 5 L8H | 0.802
chain 5 K7L | 0.141

Variant | ratio to parent
chain 5 L8Y | 0.922
chain 5 N4P | 0.0223
chain 5 K7F | 0.0347
chain 5 N4R | 0.0703
chain 5 L8Q | 0.876
chain 5 F5A | 0.866
chain 5 I2T | 1.09
chain 5 K7N | 0.185
chain 5 I3R | 0.0501
chain 5 F5I | 0.496
chain 5 S1F | 0.459
chain 5 L8N | 0.69
chain 5 E6H | 0.174
chain 5 I2V | 1.07
chain 5 N4T | 0.156
chain 5 K7E | 0.0194
chain 5 L8R | 0.791
chain 5 E6P | 0.0101
chain 5 K7T | 0.102
chain 5 N4V | 0.132
chain 5 S1A | 0.803
chain 5 E6S | 0.00329
